Data from patent US20120082682A1 (GlaxoSmithKline, published 2012).
Values belong to the binder of their own block, whether it stands above or below them.

Legend:
[1] = target: T1, human IL-13 (recombinant E. coli-expressed) (human, UniProt P35225 35-146); test: Biacore T100 SPR, Protein A capture (CM5), human IL13 analyte, 1:1 fit
T1 construct: also called hIL-13
Description: Protein A was immobilised on a CM5 chip by primary amine coupling; this surface was used as a capture surface for the antibody molecules to be tested. […] All binding curves were double referenced with a 0 nM injection (i.e. buffer alone).
Regeneration of the Protein A surface was with 50 mM NaOH. The assay was run at 25° C. using HBS-EP as running buffer. The data was fitted to 1:1 model inherent to the Biacore T100 analysis software.

[2] = target: T2, human IL-4 (recombinant E. coli-expressed) (human, UniProt P05112 25-153); test: direct binding ELISA, plate coated with 5 ug/ml human IL-4, anti-human kappa light chain-HRP detection, absorbance at 490 nm
T2 sequence (looked up): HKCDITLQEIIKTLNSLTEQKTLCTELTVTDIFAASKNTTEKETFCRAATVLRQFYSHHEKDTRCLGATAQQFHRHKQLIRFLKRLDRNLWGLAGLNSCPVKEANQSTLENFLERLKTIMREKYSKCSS
Description: 96-well high binding plates were coated with 5 μg/ml human IL-4 (made at GSK) in NaHCO₃ and stored overnight at 4° C. The plates were washed twice with Tris-Buffered Saline with 0.05% of Tween-20 (TBST). 100 μL of blocking solution (1% BSA in TBST buffer) was added in each well and the plates were incubated for at least one hour at room temperature. The mAbdAbs were successively diluted across the plates in blocking solution. After one hour incubation, the plates were washed three times. Goat anti-human kappa light chain specific peroxidase conjugated antibody (Sigma A7164) was diluted in blocking solution to 1 μg/mL and 50 μL was added to each well. The plates were incubated for one hour. After another three washing steps, 50 μl of OPD (o-phenylenediamine dihydrochloride) SigmaFast substrate solution was added to each well and the reaction was stopped after about 5 minutes by addition of 25 μL of 3M sulphuric acid. Absorbance was read at 490 nm using the VersaMax Tunable Microplate Reader (Molecular Devices) using a basic endpoint protocol.

[3] = target: T2, human IL-4 (recombinant E. …); test: Biacore T100 SPR, Protein A capture (CM5), 1:1 fit; paragraph 260 calls Table 20 IL13, its footnote and values point to IL4
Description: (§1) Protein A was immobilised on a CM5 chip by primary amine coupling; this surface was used as a capture surface for the antibody molecules to be tested. […] Regeneration the Protein A surface was with 50 mM NaOH. The assay was run at 25° C. using HBS-EP as running buffer. The data was fitted to 1:1 model inherent to the Biacore T100 analysis software.

[4] = target: T2, human IL-4 (recombinant E. …); test: Biacore T100 SPR, Protein A capture (CM5), human IL4 analyte, 1:1 fit
Description: (§2) Protein A was immobilised on a CM5 chip by primary amine coupling; this surface was used as a capture surface for the antibody molecules to be tested.
(§3) All binding curves were double referenced with a 0 nM injection (i.e. buffer alone). Regeneration of the Protein A surface was with 50 mM NaOH. The assay was run at 25° C. using HBS-EP as running buffer. The data was fitted to 1:1 model inherent to the Biacore T100 analysis software.

[5] = target: T2, human IL-4 (recombinant E. …); test: cell-based or functional assay
[6] = target: T2, human IL-4 (recombinant E. …); test: Biacore T100 SPR, Protein A capture (CM5), human IL4 analyte, 1:1 fit; remark: listed apart in the source
Description: Purified mAbs and mAbdAb constructs were tested in a BIAcore assay to determine whether the mutation of position 89 had any effect on the binding of the dAb to IL-4.
as §1, with “Regeneration of” for “Regeneration”, “the […]” for “the Protein”, “was achieved using” for “was with”

[7] = target: T1, human IL-13 (recombinant E. …); test: Biacore T100 SPR, Protein A capture (CM5), 1:1 fit; paragraph 260 calls Table 21 IL4, the values match IL13 (tables seem swapped)
Description: as §1

[8] = target: T1, human IL-13 (recombinant E. …); test: cell-based or functional assay
[9] = target: T2, human IL-4 (recombinant E. …); test: Biacore T100 SPR, Protein A capture (C1 chip), human IL4 analyte, 1:1 fit
Description: as §1, with “Cl” for “CM5”, “100” for “50”, “Phosphoric acid.” for “NaOH.”

[10] = target: T2, human IL-4 (recombinant E. …); test: Biacore T100 SPR, Protein A capture (CM5), human IL4 analyte, 1:1 fit; footnote: impossible on-rate
Description: as §2, §3

[11] = target: T2, human IL-4 (recombinant E. …); test: Biacore T100 SPR, Protein A capture (C1 chip), human IL4 analyte, 1:1 fit; on-rate beyond the sensitivity of Biacore (footnote)
Description: as §1, with “Cl” for “CM5”, “100” for “50”, “Phosphoric acid.” for “NaOH.”

[12] = target: T2, human IL-4 (recombinant E. …); test: Biacore T100 SPR, Protein A capture (CM5), human IL4 analyte
Description: as §2, §3

[13] = target: T2, human IL-4 (recombinant E. …); test: Biacore T100 SPR, Protein A capture (CM5), human IL4 analyte, 1:1 fit; footnote: rates not measurable
Description: as §2, §3

[14] = target: T1, human IL-13 (recombinant E. …); test: ProteOn XPR36 SPR, mAb (supernatant) captured on anti-human IgG, IL13 analyte
Description: The initial screen of CDRH3 mutants was carried out on the ProteOn XPR36 (Biorad). […] 3M MgCl₂ was used to regenerate the capture surface, removing the bound CDRH3 mutant antibodies ready for another cycle of capture and analyte injection. The data was fitted to the 1:1 model using the software inherent to the machine.
(§4) In light of this, mutations at this residue that were not present in the initial screen were tested using the ProteOn using the same method as described earlier and again using antibodies direct from tissue culture supernatants.

[15] = target: T1, human IL-13 (recombinant E. …); test: Biacore T100 SPR, purified mAb captured on anti-human IgG, IL13 analyte, 1:1 fit
Text: (§5) Table 1 details the overall affinities (equilibrium dissociation constant KD) for the selected constructs from the ProteOn screen and the T100 run

[16] = target: T1, human IL-13 (recombinant E. …); test: Biacore T100 SPR, mAb captured on anti-human IgG, IL13 analyte
Description: as §5, §4

[17] = target: T2, human IL-4 (recombinant E. …); test: direct binding ELISA, plate coated with 5 µg/ml human IL-4, anti-human kappa light chain-HRP detection, absorbance at 490 nm
Description: An ELISA was performed as described in example 4, coating 96-well high binding plates with 50 μl/well of recombinant E. coli-expressed human IL-4 at 5 μg/ml and incubated at +4° C. overnight.

[18] = target: T1, human IL-13 (recombinant E. …); test: Biacore T100 SPR, mAb (supernatant) captured on anti-human IgG, IL13 analyte, 1:1 fit
Text: as §5

T1 sequence (P35225 other isoform, or with tags, fused parts or gaps limits assumed): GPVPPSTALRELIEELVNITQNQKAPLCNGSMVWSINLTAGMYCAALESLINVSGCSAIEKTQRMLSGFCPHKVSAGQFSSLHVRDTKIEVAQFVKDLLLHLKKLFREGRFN

- ND50 human IL-13, TF-1 cell proliferation bioassay [8]: 0.615 nM
B3: BPC1627 (bispecific antibody, human IgG1, kappa)
heavy: not shown
light: DIVMTQSPLSLPVTPGEPASISCRSSQNIVHINGNTYLEWYLQKPGQSPRLLIYKISDRFSGVPDRFSGSGSGTDFTLKISRVEADDVGIYYCFQGSHVPWTFGQGTKLEIKRTVAAPSVFIFPPSDEQLKSGTASVVCLLNNFYPREAKVQWKVDNALQSGNSQESVTEQDSKDSTYSLSSTLTLSKADYEKHKVYACEVTHQGLSSPVTKSFNRGEC

- ND50 human IL-13, TF-1 cell proliferation bioassay [8]: 0.553 nM
B4: BPC1624 (bispecific antibody, human IgG1, kappa)
heavy: not shown
light: B3 light

- ND50 human IL-13, TF-1 cell proliferation bioassay [8]: 0.542 nM
B5: BPC1625 (bispecific antibody, human IgG1, kappa)
heavy: not shown
light: B3 light

- Kd [11]: 0.01 nM
B9: BPC2230 (bispecific antibody, human IgG1, kappa)
heavy: not shown
light: B3 light
notes: mAbdAb with the original CDRH3 and the unmutated DOM9-155-154 dAb

- binding result [12]: no binding (tested: IL4 up to 64 nM)
B11: BPC1119 (bispecific antibody, human IgG1, kappa)
heavy: not shown
light: B3 light
notes: mAbdAb; dAb Kabat 89 P; also called 829H-(TVAAPS)2GS-154 (89P)

- Kd [13]: 29 nM
- koff [13]: 3.31 s⁻¹
B13: BPC1112 (bispecific antibody, human IgG1, kappa)
heavy: not shown
light: B3 light
notes: mAbdAb; dAb Kabat 89 K; also called 829H-(TVAAPS)2GS-154 (89K)

- Mean ND50 value (nM), TF-1 cell proliferation bioassay [5]: 0.98 nM
B14: DOM9-155-154 (other)
VL: DIQMTQSPSSLSASVGDRVTITCRASRPISDWLHWYQQKPGKAPKLLIAWASSLQGGVPSRFSGSGSGTDFTLTISSLQPEDFATYYCLQEGWGPPTFGQGTKVEIKR

- Kd [14]: 0.166 nM
- Kd [15]: 0.027 nM
- koff [15]: 2.12e-05 s⁻¹
- kon [15]: 776000 M⁻¹ s⁻¹
- Kd [16]: 0.025 nM
- binding result [17]: no binding (tested: 10 µg/ml)
- Kd [18]: 0.034 nM
- koff [18]: 3.45e-05 s⁻¹
- kon [18]: 1.02e+06 M⁻¹ s⁻¹
B15: A1Y100B ValL1 (antibody, human IgG1, kappa, V domains shown)
VH: QVQLVQSGAEVKKPGSSVKVSCKASGFYIKDTYMHWVRQAPGQGLEWMGTIDPANGNTKYVPKFQGRVTITADESTSTAYMELSSLRSEDTAVYYCARSIYDDYHVDDYYAMDYWGQGTLVTVSS
VL: DIVMTQSPLSLPVTPGEPASISCRSSQNIVHINGNTYLEWYLQKPGQSPRLLIYKISDRFSGVPDRFSGSGSGTDFTLKISRVEADDVGIYYCFQGSHVPWTFGQGTKLEIKR
notes: CDRH3 variant of A1L1; also called A1Y100BVAL1; 829 (mAb)

The remaining lines, values behind:

B1: BPC1085 (bispecific antibody, human IgG1, kappa)
heavy: not shown
light: B3 light
notes: also called 829H-GS(TVAAPSGS)2-154 (89Q)
- Kd [1]: 0.073 nM
- EC50 (read off the curve) [2]: ~4 nM
- Kd [3]: 0.048 nM
- Kd [4]: 0.078 nM
- Mean ND50 value (nM), TF-1 cell proliferation bioassay [5]: 9.21 nM
- Kd [6]: 0.052 nM

B2: BPC1086 (bispecific antibody, human IgG1, kappa)
heavy: not shown
light: B3 light
notes: also called 829H-GS(TVAAPSGS)3-154 (89Q)
- EC50 (read off the curve) [2]: ~4 nM
- Kd [7]: 0.051 nM
- koff [7]: 6.57e-05 s⁻¹
- kon [7]: 1.28e+06 M⁻¹ s⁻¹

B6: BPC1626 (bispecific antibody, human IgG1, kappa)
heavy: not shown
light: B3 light
- ND50 human IL-13, TF-1 cell proliferation bioassay [8]: 0.681 nM

B7: BPC2223 (bispecific antibody, human IgG1, kappa)
heavy: not shown
light: B3 light
notes: as for B9
- Kd [9]: 0.018 nM
- Kd [6]: 0.01 nM

B8: BPC1115 (bispecific antibody, human IgG1, kappa)
heavy: not shown
light: B3 light
notes: mAbdAb; dAb Kabat 89 Y; also called 829H-(TVAAPS)2GS-154 (89Y)
- Kd [10]: 2.29 nM
- koff [10]: 0.329 s⁻¹
- kon [10]: 1.44e+08 M⁻¹ s⁻¹

B10: BPC2231 (bispecific antibody, human IgG1, kappa)
heavy: not shown
light: B3 light
notes: as for B9
- EC50 (read off the curve) [2]: ~3 nM
- Kd [3]: 0.002 nM
- Kd [11]: 0.006 nM

B12: BPC1113 (bispecific antibody, human IgG1, kappa)
heavy: not shown
light: B3 light
notes: mAbdAb; dAb Kabat 89 D; also called 829H-(TVAAPS)2GS-154 (89D)
- binding result [12]: no binding (tested: IL4 up to 64 nM)
